Measurements as given in paper PMC3691326, “Structure of the Human Telomeric Stn1-Ten1 Capping Complex” (PLoS ONE, 2013).
Numbering of substitutions follows the chain as printed. In names and notes the source's numbering stands.

B1: human Ten1, full length, wild type (natural protein, UniProt Q86WV5 1-123, looked up)
chain: MMLPKPGTYYLPWEVSAGQVPDGSTLRTFGRLCLYDMIQSRVTLMAQHGSDQHQVLVCTKLVEPFHAQVGSLYIVLGELQHQQDRGSVVKARVLTCVEGMNLPLLEQAIREQRLYKQERGGSQ
notes: human Ten1 (hTen1), subunit of the human CST complex, full length; Purification is described only for the complex with hStn1N (cells mixed before lysis; tags cleaved by TEV); also called hTen1; hTen1(WT); source: E. coli BL21-CodonPlus(DE3) RIPL, purified; not shown: His, N-terminal, cleaved
B2: human Ten1 (R27Q), full length (natural protein, UniProt Q86WV5 1-123, looked up)
chain: B1 chain with R27Q
notes: human Ten1, full length, with R27Q; also called hTen1(R27Q); source: purified (pure, homogeneous)
B3: human Ten1 (R119Q), full length (natural protein, UniProt Q86WV5 1-123, looked up)
chain: B1 chain with R119Q
notes: human Ten1, full length, with R119Q; also called hTen1(R119Q); source: purified (pure, homogeneous)
B4: human Ten1 (Y115A), full length (natural protein, UniProt Q86WV5 1-123, looked up)
chain: B1 chain with Y115A
notes: human Ten1, full length, with Y115A; also called hTen1(Y115A); source: purified (pure, homogeneous)

Assays:
[1] = target: T1, human Stn1, full length, wild type (human, UniProt Q9H668 1-368); assay: ITC; MicroCal iTC200; hTen1 at 125 µM injected into the cell with hStn1 at 12 µM; 20°C; 300 mM KCl, 25 mM Tris-HCl pH 7.5, 1 mM DTT, 5% glycerol; 2.47 µL injections; conditions: both partners purified
T1 construct: human Stn1 (hStn1), subunit of the human CST complex, full length; The methods describe the his-MBP tag for hStn1N only and say that full-length hStn1 was overexpressed and purified by the same procedure; also called hStn1; hStn1(WT); not shown: His (by 'the same procedure' as hStn1N), N-terminal, cleaved; MBP (by 'the same procedure' as hStn1N), N-terminal, cleaved
T1 sequence (looked up): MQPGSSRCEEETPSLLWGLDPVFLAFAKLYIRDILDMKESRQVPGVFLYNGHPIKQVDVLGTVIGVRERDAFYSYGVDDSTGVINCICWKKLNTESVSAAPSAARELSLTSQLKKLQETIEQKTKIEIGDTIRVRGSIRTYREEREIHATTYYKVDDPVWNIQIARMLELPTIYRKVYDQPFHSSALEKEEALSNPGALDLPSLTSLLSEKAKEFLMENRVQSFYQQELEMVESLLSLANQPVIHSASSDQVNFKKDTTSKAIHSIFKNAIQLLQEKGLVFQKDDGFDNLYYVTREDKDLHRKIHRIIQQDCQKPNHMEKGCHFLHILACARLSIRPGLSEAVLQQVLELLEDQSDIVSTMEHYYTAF

hStn1 = target: T2, hStn1 (Homo sapiens, UniProt Q9H668 1-368); assay: fluorescence polarization; FP: 100 mM NaCl, 5 mM MgCl2, 1 mM DTT, 5% glycerol, 1 mg/mL BSA, 2.5 nM 6-FAM DNA, room temperature; pH not stated; conditions: protein: recombinant; tags: none stated after TEV cleavage (his-MBP fusion removed); single strand
T2 sequence: T1 sequence (looked up)

hTen1 = target: T3, hTen1 (Homo sapiens, UniProt Q86WV5 1-123); assay: fluorescence polarization; not detected; FP: 100 mM NaCl, 5 mM MgCl2, 1 mM DTT, 5% glycerol, 1 mg/mL BSA, 2.5 nM 6-FAM DNA, room temperature; pH not stated; conditions: protein: recombinant; single strand
T3 sequence: B1 chain

Binder	Kd [1]	Kd (hStn1)	also measured
B1	6.3 nM	–	–
B2	33 nM	–	–
B3	13 nM	–	–
B4	14 nM	–	–
TTAGGGTTAGGGTTAGGG (ssDNA) [tel18]	–	~200 nM	–
GTTACGAAATACGGACAC (ssDNA) [rand18]	–	~200 nM	–
TTAGGGTTAGGG (ssDNA) [tel12]	–	~1000 nM	–
TTAGGGTTAGGGTTAGGGTTAGGGTTAGGG (ssDNA) [tel30]	–	–	binding result (hTen1): no binding
